Results reported in patent publication US20240262915A1 (NANJING SANHOME PHARMACEUTICAL, published 2024).

Assays:
[1] = target: T1, TIGIT on TIGIT/NFAT-reporter-Jurkat cells (UniProt Q495A1 22-244, limits assumed); experiment: cell-based or functional assay
T1 sequence (looked up): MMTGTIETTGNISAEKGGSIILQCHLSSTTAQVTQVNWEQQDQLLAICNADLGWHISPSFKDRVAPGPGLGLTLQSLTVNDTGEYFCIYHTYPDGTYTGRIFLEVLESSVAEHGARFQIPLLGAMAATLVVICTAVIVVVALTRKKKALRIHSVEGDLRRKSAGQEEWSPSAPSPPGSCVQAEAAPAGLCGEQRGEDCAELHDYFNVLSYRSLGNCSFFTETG

[2] = target: T2, full-length TIGIT on hTIGIT-CHO-K1 cells (human, UniProt Q495A1 22-244); experiment: FACS on hTIGIT-CHO-K1 cells
T2 construct: CHO-K1 cells stably transfected with pTargeT-TIGIT; also called TIGIT on cell surface
T2 sequence: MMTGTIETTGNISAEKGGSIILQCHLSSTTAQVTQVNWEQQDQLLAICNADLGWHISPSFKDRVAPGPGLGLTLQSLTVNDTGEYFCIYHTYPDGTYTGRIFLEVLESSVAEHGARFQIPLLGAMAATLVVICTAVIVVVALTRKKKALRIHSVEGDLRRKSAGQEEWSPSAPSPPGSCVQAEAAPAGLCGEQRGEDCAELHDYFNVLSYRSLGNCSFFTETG

[3] = target: T3, Human TIGIT-His protein (Sino Biological, 10917-H08H) (human, UniProt Q495A1 22-141); experiment: ELISA, human TIGIT-His coated
T3 sequence (looked up): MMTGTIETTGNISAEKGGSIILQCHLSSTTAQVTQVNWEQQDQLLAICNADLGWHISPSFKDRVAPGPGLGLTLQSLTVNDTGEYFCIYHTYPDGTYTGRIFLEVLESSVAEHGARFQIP

[4] = target: T4, TIGIT-mFc (extracellular region of human TIGIT with mIgG1-Fc tag) (human); experiment: ELISA, blocking of TIGIT-mFc binding to coated CD155-hFc (competitor CD155-hFc)
T4 construct: A bought TIGIT-mFc (Acro Biosystems TIT-H5253) is used for immunization; also called recombinant humanized TIGIT-mFc
T4 chain: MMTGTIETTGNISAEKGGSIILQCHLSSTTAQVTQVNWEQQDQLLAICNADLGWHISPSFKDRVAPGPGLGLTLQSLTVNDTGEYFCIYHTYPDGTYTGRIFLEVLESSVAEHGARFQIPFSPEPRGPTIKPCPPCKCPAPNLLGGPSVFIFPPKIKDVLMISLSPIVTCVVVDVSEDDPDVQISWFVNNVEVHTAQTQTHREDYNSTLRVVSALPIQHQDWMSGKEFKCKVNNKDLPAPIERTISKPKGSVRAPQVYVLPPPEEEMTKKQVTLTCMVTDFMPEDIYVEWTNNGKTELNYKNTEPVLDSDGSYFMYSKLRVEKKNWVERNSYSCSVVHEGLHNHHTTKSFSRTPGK

[5] = target: T5, TIGIT-his (extracellular region of human TIGIT protein fused with his) (human, UniProt Q495A1 22-141); experiment: BLI, Fortebio Octet RED96, SA sensor
T5 construct: also called antigen TIGIT-his
T5 sequence: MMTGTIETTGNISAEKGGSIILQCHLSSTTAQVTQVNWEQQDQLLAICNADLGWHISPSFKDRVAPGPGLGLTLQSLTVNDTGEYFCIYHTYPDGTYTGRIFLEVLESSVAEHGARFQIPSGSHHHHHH

[6] = target: T5, TIGIT-his (extracellular region of …); experiment: BLI, Fortebio Octet RED96, antibody on AHC sensor, TIGIT-his in solution
PD-L1-his = target: T6, PD-L1-his (human, UniProt Q9NZQ7 19-238, limits assumed); experiment: BLI, Fortebio Octet RED96, antibody on AHC sensor, PD-L1-his in solution
T6 construct: also called human PD-L1 protein
T6 sequence (Q9NZQ7 19-238 limits assumed): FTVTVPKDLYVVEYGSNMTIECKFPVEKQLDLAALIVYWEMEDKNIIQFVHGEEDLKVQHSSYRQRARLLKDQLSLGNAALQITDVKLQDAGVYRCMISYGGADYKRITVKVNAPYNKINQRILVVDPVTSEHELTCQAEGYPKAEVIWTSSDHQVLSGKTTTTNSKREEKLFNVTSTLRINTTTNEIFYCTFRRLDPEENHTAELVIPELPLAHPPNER

[7] = target: T4, TIGIT-mFc (extracellular region of …); experiment: FACS, blocking of TIGIT-mFc binding to cells (TIGIT/CD155; cells printed as hTIGIT-CHO-K1)

Binder | EC50 [2] [nM] | EC50 [3] [nM] | IC50 [4] [nM] | Kd (PD-L1-his) [nM] | koff (PD-L1-his) [s⁻¹] | kon (PD-L1-his) [M⁻¹ s⁻¹] | other results
SHS006-23 (antibody, V domains shown) VH: EVQLVESEGGLVQPGASVKLSCVGSGFSFSDHWMSWVRQTPGKTMEWIGNIQYDGSYTNYAPSLKNRFTISRDNAKNTLYLQMTNLRSEDTATYYCTRGHFRITMASMGASASVYWGQGVMVTVSS VL: DIQMTQSPSSLPTSLGDRVTITCRTSQDIGNSLRWFQQKPGKSPRLMIHGATNLANGVPSRFSGSRAGSDYSLTINSLESEDMAMYYCLQHNEYPLTFGSGTKLEIK | – | – | – | – | – | – | EC50 (nM), luciferase expression induced by anti-TIGIT antibody [1]: 0.019 nM; Top (fold), luciferase expression induced by anti-TIGIT antibody [1]: 1.62 fold
SHS006-23CHI (antibody, V domains shown, Chimeric antibody with human heavy and light chain constant regions) VH: EVQLVESEGGLVQPGASVKLSCVGSGFSFSDHWMSWVRQTPGKTMEWIGNIQYDGSYTNYAPSLKNRFTISRDNAKNTLYLQMTNLRSEDTATYYCTRGHFRITMASMGASASVYWGQGVMVTVSS VL: DIQMTQSPSSLPTSLGDRVTITCRTSQDIGNSLRWFQQKPGKSPRLMIHGATNLANGVPSRFSGSRAGSDYSLTINSLESEDMAMYYCLQHNEYPLTFGSGTKLEIK | 0.235 | 1.69 | 1.04 | – | – | – | –
SHS006-T-Hu23-53 (antibody, IgG4, V domains shown, Humanized; also called SHS006-HuT23-53; HuT23-53) VH: EVQLVESGGGLVQPGGSLRLSCAASGFTFSDHWMSWVRQAPGKTMEWIGNIQYDGSYTNYAPSLKNRFTISRDNAKNSLYLQMNSLRAEDTATYYCTRGHFRITMASMGASASVYWGQGTMVTVSS VL: DIQMTQSPSSLSASVGDRVTITCRTSQDIGNSLRWFQQKPGKAPKLLIHGATNLANGVPSRFSGSGSGTDFTLTISSLQPEDFATYYCLQHNEYPLTFGQGTKLEIK | 0.199 | 2.43 | 1.01 | – | – | – | Kd [5]: 1.14 nM; koff [5]: 0.00151 s⁻¹; kon [5]: 1.33e+06 M⁻¹ s⁻¹; Kd [6]: 2.43 nM; koff [6]: 0.00192 s⁻¹; kon [6]: 792000 M⁻¹ s⁻¹
HuPL16-42 (antibody, IgG4, V domains shown, also called humanized anti-PD-L1 antibody HuPL16-42) VH: QVQLVQSGAEVAKPGASVKMSCKASGYTFTRNTMHWIKQAPGQRLEWIGFIDPHNTYTRYNQKFKDRATLTADTSASTAYMELSSLRSEDTAVYYCARWPMDYWGQGTLVTVSS VL: DIVMTQSPDSLAVSLGERVTMRCKSSQSLSWSENQNNYLSWYQQKPGQPPKLLIYGASIRESGVPDRFSGSGSGTDFTLTISSVQAEDVGVYYCQHNHGSFLPYTFGQGTKLEIK | – | – | – | 1.9 | 0.000225 | 119000 | –
HuPL7-21 (antibody, IgG4, V domains shown, also called humanized anti-PD-L1 antibody HuPL7-21) VH: QVQLQESGPGLVKPSQTLSLTCTVSGDSITSGYWNWIRQHPGKGLEYIGYISYTGSTYYNLSLKSRVTISRDTSKNQFSLKLSSVTAADTAVYYCARYILWLRHFDYWGQGTLVTVSS VL: not shown | – | – | – | 1.49 | 0.000276 | 185000 | –
SHS006-17CHI (antibody, V domains shown, Chimeric antibody with human heavy and light chain constant regions) VH: QVTLKESGPGILQPSQTLSLTCTFSGFSLRTYGLGVGWIRQLSGKGLEWLANIWWDDDEYYNPSLKNRLTISKDTSNNQAFLKITNVDTADTATYYCARIARPHYYWDGRYILDVWGQGASVTVSS VL: DIMMTQSPLSVAVTPGESASISCRSSKSLLHSNGITYLSWYLQRPEKSPQLLIFQISNLASGVSDRFSGSGSGTDFTLIISKVETEDVGIYYCMQFLEVPYTFGAGTKLELK | 0.408 | 1.58 | 1.03 | – | – | – | –
humanized antibody 22G2 (antibody, IgG4, V domains shown, Expressed from pHR-22G2-hG4 (IgG4 heavy chain) and pHR-22G2-hk (light chain); from US 2016/0176963A1; also called positive control antibody) VH: QVQLQESGPGLVKPSETLSLTCTVSGGSVSSGIYYWSWIRQPPGKGLEWIGYIYYSGSTNYNPSLKSRVTISVDTSKNQFSLKLSSVTAADTAVYYCARDYYVSGNYYNVDYYFFGVDVWGQGTTVTVSS VL: EIVLTQSPATLSLSPGERATLSCRASQSVSSYLAWYQQKPGQAPRLLIYDASNRATGIPARFSGSGSGTDFTLTISSLEPEDFAVYYCQQRSNWPPLFTFGPGTKVDIK | 0.411 | – | 1.34 | – | – | – | EC50 (nM), luciferase expression induced by anti-TIGIT antibody [1]: 0.104 nM; Top (fold), luciferase expression induced by anti-TIGIT antibody [1]: 1.59 fold
SHS006-T-Hu17-31 (antibody, IgG4, V domains shown, Humanized) VH: QVTLKESGPVLVKPTETLTLTCTFSGFSLRTYGLGVGWIRQPPGKALEWLANIWWDDDEYYNPSLKNRLTISKDTSKSQAVLTMTNMDPVDTATYYCARIARPHYYWDGRYILDVWGQGTTVTVSS VL: DIVMTQSPLSLPVTPGEPASISCRSSKSLLHSNGITYLSWYLQKPGQSPQLLIYQISNLASGVPDRFSGSGSGTDFTLKISRVEAEDVGVYYCMQFLEVPYTFGQGTKLEIK | 0.303 | 1.59 | 0.954 | – | – | – | Kd [5]: 0.327 nM; koff [5]: 0.000239 s⁻¹; kon [5]: 731000 M⁻¹ s⁻¹
HuPL1642-T2353-ScFab (bispecific antibody, human IgG4 S228P, kappa) chain 1: DIQMTQSPSSLSASVGDRVTITCRTSQDIGNSLRWFQQKPGKAPKLLIHGATNLANGVPSRFSGSGSGTDFTLTISSLQPEDFATYYCLQHNEYPLTFGCGTKLEIKRTVAAPSVFIFPPSDEQLKSGTASVVCLLNNFYPREAKVQWKVDNALQSGNSQESVTEQDSKDSTYSLSSTLTLSKADYEKHKVYACEVTHQGLSSPVTKSFNRGECGGGGSGGGGSGGGGSGGGGSGGGGSGGGGSGGGGSGGGGSEVQLVESGGGLVQPGGSLRLSCAASGFTFSDHWMSWVRQAPGKCMEWIGNIQYDGSYTNYAPSLKNRFTISRDNAKNSLYLQMNSLRAEDTATYYCTRGHFRITMASMGASASVYWGQGTMVTVSSASTKGPSVFPLAPCSRSTSESTAALGCLVKDYFPEPVTVSWNSGALTSGVHTFPAVLQSSGLYSLSSVVTVPSSSLGTKTYTCNVDHKPSNTKVDKRVESKYGPPCPPCPAPEFLGGPSVFLFPPKPKDTLMISRTPEVTCVVVDVSQEDPEVQFNWYVDGVEVHNAKTKPREEQFNSTYRVVSVLTVLHQDWLNGKEYKCKVSNKGLPSSIEKTISKAKGQPREPQVYTLPPCQEEMTKNQVSLWCLVKGFYPSDIAVEWESNGQPENNYKTTPPVLDSDGSFFLYSRLTVDKSRWQEGNVFSCSVMHEALHNHYTQKSLSLSLGK chain 2: DIVMTQSPDSLAVSLGERVTMRCKSSQSLSWSENQNNYLSWYQQKPGQPPKLLIYGASIRESGVPDRFSGSGSGTDFTLTISSVQAEDVGVYYCQHNHGSFLPYTFGCGTKLEIKRTVAAPSVFIFPPSDEQLKSGTASVVCLLNNFYPREAKVQWKVDNALQSGNSQESVTEQDSKDSTYSLSSTLTLSKADYEKHKVYACEVTHQGLSSPVTKSFNRGECGGGGSGGGGSGGGGSGGGGSGGGGSGGGGSGGGGSGGGGSQVQLVQSGAEVAKPGASVKMSCKASGYTFTRNTMHWIKQAPGQCLEWIGFIDPHNTYTRYNQKFKDRATLTADTSASTAYMELSSLRSEDTAVYYCARWPMDYWGQGTLVTVSSASTKGPSVFPLAPCSRSTSESTAALGCLVKDYFPEPVTVSWNSGALTSGVHTFPAVLQSSGLYSLSSVVTVPSSSLGTKTYTCNVDHKPSNTKVDKRVESKYGPPCPPCPAPEFLGGPSVFLFPPKPKDTLMISRTPEVTCVVVDVSQEDPEVQFNWYVDGVEVHNAKTKPREEQFNSTYRVVSVLTVLHQDWLNGKEYKCKVSNKGLPSSIEKTISKAKGQPREPQVCTLPPSQEEMTKNQVSLSCAVKGFYPSDIAVEWESNGQPENNYKTTPPVLDSDGSFFLVSRLTVDKSRWQEGNVFSCSVMHEALHNHYTQKSLSLSLGK | – | – | – | 1.15 | 0.000212 | 184000 | Kd [6]: 13.9 nM; koff [6]: 0.00487 s⁻¹; kon [6]: 350000 M⁻¹ s⁻¹; IC50 [7]: 1.51 nM
